Positions count from the first letter of the chain named.

This assay deals with T1, 12xHis-SUMO-Cdc48 (S. cerevisiae, UniProt P25694 1-835).
T1 construct: Cdc48, multifunctional ATPase, S. cerevisiae, full length; also called 12xHis-Sumo-tagged Cdc48; p97 in higher organisms
Kind of assay: pull-down; GST-tagged Cuz1 species added to 12xHis-Sumo-tagged Cdc48 or to beads alone; bound Cuz1 seen by SDS-PAGE and anti-Cuz1 immunoblot; as previously described in ref. 7. Particulars: both partners purified. (A western blot detects proteins with antibodies after separation by electrophoresis.)

T1 sequence (P25694 whole entry): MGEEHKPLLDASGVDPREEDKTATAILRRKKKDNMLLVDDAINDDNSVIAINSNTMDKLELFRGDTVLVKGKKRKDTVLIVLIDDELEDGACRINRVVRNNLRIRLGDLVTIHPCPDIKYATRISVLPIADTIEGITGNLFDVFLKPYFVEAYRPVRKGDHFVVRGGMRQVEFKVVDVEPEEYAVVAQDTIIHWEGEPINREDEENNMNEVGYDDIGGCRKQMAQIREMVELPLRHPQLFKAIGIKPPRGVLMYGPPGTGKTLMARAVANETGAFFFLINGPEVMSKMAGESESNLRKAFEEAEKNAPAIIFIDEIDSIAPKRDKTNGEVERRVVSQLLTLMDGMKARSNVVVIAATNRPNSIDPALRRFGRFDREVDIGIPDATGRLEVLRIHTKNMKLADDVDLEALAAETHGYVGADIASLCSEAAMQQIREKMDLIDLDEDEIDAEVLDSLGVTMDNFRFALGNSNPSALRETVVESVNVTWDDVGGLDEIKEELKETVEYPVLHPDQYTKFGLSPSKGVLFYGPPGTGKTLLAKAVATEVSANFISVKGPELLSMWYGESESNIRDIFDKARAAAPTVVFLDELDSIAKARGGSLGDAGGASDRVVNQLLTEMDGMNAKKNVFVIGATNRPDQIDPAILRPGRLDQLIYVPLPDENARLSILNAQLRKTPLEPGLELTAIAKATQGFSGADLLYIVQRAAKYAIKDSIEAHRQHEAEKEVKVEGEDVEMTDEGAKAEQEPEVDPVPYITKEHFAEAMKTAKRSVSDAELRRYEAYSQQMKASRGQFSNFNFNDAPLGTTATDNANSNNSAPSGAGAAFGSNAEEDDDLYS

B1: GST-Cuz1, full length wild type (plasmid pJH150) (natural protein, S. cerevisiae, UniProt P53899 1-274, looked up)
chain: MSAAIEKETGMLDVGKHCAYCRQLDFLPFHCSFCNEDFCSNHRLKEDHHCRWLLEHEEVHKTEKSPSKSRDGSSSNDEAYFKSLLPERASVRIQRVSETREPLRGSNTAKVSSTLNSKTLDKIFKFFQRNEKRKSNNKSKKNFGSSSNKIIQLANLKKIAKGDPKIPMQNRIYIWCYLVDGDETDIAKEDTRMPLYINKMWPVGRAMDYLSIQLNVKSSTLTNSSSNDKFQLCKLKEGKQVSFYNIGASLRVTNEIKDLDTLYLVHNNADEKSN
notes: Cuz1 (systematic name Ynl155w), S. cerevisiae, 274 amino acids, full length; also called Ynl155w; GST-tagged Cuz1
For the molecule B1, the binding result is listed as “binds”.

B2: GST-Cuz1 LDFL→AAAA, full length (plasmid pJH171) (natural protein, S. cerevisiae, UniProt P53899 1-274, looked up)
chain: B1 chain with L24A, D25A, F26A, L27A
notes: Cuz1 (systematic name Ynl155w), S. cerevisiae, 274 amino acids, full length, with LDFL (L24, D25, F26, L27) changed to AAAA; Made by site-directed mutagenesis of pJH150; also called Cuz1^LDFL→AAAA mutant; Cuz1 LDFL mutant
Turning to B2, the binding result is listed as “binds”.

For the origin of these results see article PMC5035049, “Solution Structure of the Cuz1 AN1 Zinc Finger Domain: An Exposed LDFLP Motif Defines a Subfamily of AN1 Proteins” (PLoS ONE, 2016).
